Laboratory results reported in patent US8927500.
Where “and” joins values, the source holds several entries; their conditions need not be identical. Equal entries are not always repeated.

target: MDM2 (In-house, 41 kD) (UniProt Q00987); assay: competitive fluorescence polarization, MDM2 with FAM-labeled linear peptide; graded scale of paragraph 458
Sequence (Q00987 1-138 limits assumed): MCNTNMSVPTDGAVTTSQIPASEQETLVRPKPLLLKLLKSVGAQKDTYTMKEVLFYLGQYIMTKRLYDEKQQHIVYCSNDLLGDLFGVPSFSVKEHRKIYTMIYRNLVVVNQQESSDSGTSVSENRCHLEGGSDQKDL

Substance | IC50
peptidomimetic macrocycle SP752, Ac-t$r5wya$r5f4CF3ekllr-NH2 (peptide) | > 0.1 µM and < 1 µM
peptidomimetic macrocycle SP753, Ac-tawy$r5nf4CF3e$r5llr-NH2 (peptide) | > 0.01 µM and < 0.1 µM
peptidomimetic macrocycle SP754, Ac-tawya$r5f4CF3ek$r5lr-NH2 (peptide) | > 0.1 µM and < 1 µM
peptidomimetic macrocycle SP755, Ac-tawyanf4CF3e$r5llr$r5a-NH2 (peptide) | < 0.01 µM
peptidomimetic macrocycle SP756, Ac-t$s8wyanf4CF3e$r5llr-NH2 (peptide) | > 0.01 µM and < 0.1 µM
peptidomimetic macrocycle SP757, Ac-tawy$s8nf4CF3ekll$r5a-NH2 (peptide) | < 0.01 µM
peptidomimetic macrocycle SP758, Ac-tawya$s8f4CF3ekllr$r5a-NH2 (peptide) | > 0.01 µM and < 0.1 µM
